Assay results: patent US20200165354A1 (WUXI BIOLOGICS IRELAND, published 2020)

How the values were obtained:
[1] = target: human PCSK9 with C-terminal 6-His tag, biotin-labelled (PCSK9-His-biotin) (human) (UniProt Q8NBP7); experiment: ELISA binding to human PCSK9
[2] = target: human PCSK9 (construct not stated) (human) (UniProt Q8NBP7); experiment: cell-based or functional assay
[3] = target: human PCSK9 with C-terminal murine Fc, biotin-labelled (PCSK9-mFc-biotin) (human) (UniProt Q8NBP7); experiment: blocking ELISA, binding of PCSK9 to LDL-R
[4] = target: T1, human PCSK9 with C-terminal 6-His tag, biotin-labelled (PCSK9-His-biotin) (human, UniProt Q8NBP7 31-692, biotin-labelled, site not stated); experiment: ELISA, purified antibody on PCSK9-His-biotin captured on streptavidin
T1 construct: Made in HEK293, purified on Ni column
Experimental: Binding assay by ELISA: Plates (Nunc) were coated with Streptavidin at 1 μg/ml overnight at 4° C. After blocking and washing, 250 ng/ml PCSK9-His-biotin was added and incubated for 1 h. Then hybridoma supernatants were transferred to the plates and incubate at room temperature for 1 h. The plates were then washed and subsequently incubated with secondary antibody goat anti mouse-IgG-Fc-HRP (Bethyl) for 1 h. After washing, TMB substrate was added and the interaction was stopped by 2M HCl. The absorbance at 450 nm was read using a microplate reader (Molecular Device).
(§1) Binding and blocking activities were confirmed using purified antibodies (FIGS. 1 and 2).

[5] = target: T2, human PCSK9 (construct not stated) (human, UniProt Q8NBP7 31-692, limits assumed); experiment: cell-based or functional assay
[6] = target: T3, rhesus PCSK9-His (Sino Biological) (rhesus monkey, UniProt A8T666 31-692, limits assumed); experiment: ELISA, rhesus PCSK9-His captured on anti-His antibody
T3 construct: also called rhesus monkey PCSK9; monkey PCSK9
T3 sequence (A8T666 31-692 limits assumed): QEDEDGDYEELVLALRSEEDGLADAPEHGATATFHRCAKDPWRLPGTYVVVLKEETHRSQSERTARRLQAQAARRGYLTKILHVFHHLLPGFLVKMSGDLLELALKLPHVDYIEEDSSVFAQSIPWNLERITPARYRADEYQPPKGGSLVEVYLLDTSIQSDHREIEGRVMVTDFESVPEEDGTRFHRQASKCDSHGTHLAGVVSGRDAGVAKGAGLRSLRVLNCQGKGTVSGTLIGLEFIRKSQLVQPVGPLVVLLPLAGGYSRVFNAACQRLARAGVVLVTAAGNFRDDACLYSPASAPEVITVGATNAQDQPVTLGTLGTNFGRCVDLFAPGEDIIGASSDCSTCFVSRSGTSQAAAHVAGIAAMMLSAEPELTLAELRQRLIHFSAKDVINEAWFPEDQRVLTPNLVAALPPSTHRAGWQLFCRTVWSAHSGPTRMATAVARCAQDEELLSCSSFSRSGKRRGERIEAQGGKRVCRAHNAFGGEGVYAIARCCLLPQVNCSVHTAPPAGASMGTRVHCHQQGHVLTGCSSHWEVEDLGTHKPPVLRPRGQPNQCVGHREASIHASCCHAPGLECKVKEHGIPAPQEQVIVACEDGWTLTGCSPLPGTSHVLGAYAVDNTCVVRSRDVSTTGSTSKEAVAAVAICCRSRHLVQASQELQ
Experimental: ELISA plates (Nunc) were coated with anti-His antibody (Genscript) at 1 μg/ml overnight at 4° C. After blocking and washing, 1 μg/ml rhesus PCSK9-His (Sino Biological) was added and incubated for 1 h. The antibody samples were added to the plates and incubate at room temperature for 1 h. The plates were then washed and subsequently incubated with secondary antibody goat anti mouse-IgG-Fc-HRP (Bethyl) for 45 min. After washing, TMB substrate was added and the interaction was stopped by 2M HCl. The absorbance at 450 nm was read using a microplate reader (Molecular Device).
Binding to monkey PCSK9: the affinity of selected antibodies binding to rhesus monkey PCSK9 was measured by ELISA (see FIG. 4).

[7] = target: T2, human PCSK9 (construct not stated); experiment: SPR Biacore T200, antibody captured by anti-Fc antibody, PCSK9 as analyte, 1:1 fit
Experimental: (§2) Antibody binding affinity to human and rhesus PCSK9 was detected by SPR assay using Biacore T200 (GE). Each antibody was captured on anti-murine IgG Fc antibody (GE) or anti-human IgG Fc antibody (Genway) immobilized CM5 sensor chip (GE). Human or rhesus PCSK9 at different concentrations were injected over the sensor chip at a flow rate of […] for an association phase of 180 s, followed by 1200 s dissociation. The chip was regenerated by 2 M MgCl₂ after each binding cycle.
(§3) The sensorgrams for blank surface and buffer channel are subtracted from the test sensorgrams. The experimental data was fitted by 1:1 model using Langmiur analysis. Molecular weight of 85 KDa was used to calculate the molar concentration of analyte.
Kinetic affinity by SPR: the affinities of selected clones binding to human PCSK9 were measured by SPR assay.

[8] = target: T4, human PCSK9 with C-terminal murine Fc, biotin-labelled (PCSK9-mFc-biotin) (human, UniProt Q8NBP7 31-692, limits assumed, biotin-labelled, site not stated); experiment: competition ELISA, antibody premixed with PCSK9-mFc-biotin, binding to coated LDL-R
T4 construct: not shown: murine Fc (mFc) fused at the C-terminus
Experimental: Blocking assay by ELISA: Plates (Nunc) were coated with LDL-R overnight at 4° C. Hybridoma supernatants were mixed with 250 ng/ml PCSK9-mFc-biotin and incubated at 4° C. overnight. After blocking and washing, the mixture were added to the plates and incubated for 1 h. The plates were then washed and subsequently incubated with streptavidin-HRP. After washing, TMB substrate was added and the interaction was stopped by 2M HCl. The absorbance at 450 nm was read using a microplate reader (Molecular Device).
as §1

[9] = target: T2, human PCSK9 (construct not stated); experiment: SPR Biacore, antibody captured, human PCSK9 as analyte
Experimental: as §2, §3

[10] = target: T5, rhesus (monkey) PCSK9, SPR analyte, construct not stated (rhesus monkey, UniProt A8T666 31-692, limits assumed); experiment: SPR Biacore, antibody captured, monkey PCSK9 as analyte
T5 construct: also called rhesus PCSK9
T5 sequence (A8T666 31-692 limits assumed): as above
Experimental: as §2, §3

[11] = target: T2, human PCSK9 (construct not stated); experiment: ELISA, biotin-labelled PCSK9 on a streptavidin plate, antibody in human serum, 3 days at 37 C, goat anti-human-HRP, OD450
Experimental: (§4) After incubation at 37° C., samples were rapidly frozen in dry-ice-ethanol bath and kept at −80° C. The samples were rapidly thawed before stability test. The plates were coated with streptavidin in Na₂CO₃/NaHCO₃ (pH 9.2) buffer at 4° C. overnight. The plates were washed with 0.1% Tween-PBS once before being blocked with 2% BSA/PBS. Biotin-labeled PCSK9 was added and incubated for 1 hr. After washing, then diluted serum samples were transferred to the plates and incubated for 1 hr at room temperature. Goat anti-human-HRP antibody were added to the wells and incubated for 1 hr. After washing, TMB substrate was added and the interaction was stopped by 2 M HCl. The absorbance at 450 nm was read using a microplate reader (Molecular Device).
(§5) The antibody binding to human PCSK9 was tested by ELISA after incubation in human serum at 37° C.

[12] = target: T1, human PCSK9 with C-terminal 6-His tag, …; experiment: ELISA binding to human PCSK9
[13] = target: T4, human PCSK9 with C-terminal murine Fc, …; experiment: blocking ELISA, binding of PCSK9 to LDL-R
[14] = target: T2, human PCSK9 (construct not stated); experiment: ELISA, biotin-labelled PCSK9 on a streptavidin plate, antibody in human serum, 0 days at 37 C, goat anti-human-HRP, OD450
Experimental: as §4, §5

[15] = target: T2, human PCSK9 (construct not stated); experiment: SPR, human PCSK9
[16] = target: T5, rhesus (monkey) PCSK9, SPR analyte, …; experiment: SPR, monkey PCSK9
Experimental: as §2, §3
The binding activity of engineered antibody was evaluated by SPR affinity test.

EC50 [4] [nM]	IC50 (nM), LDL-uptake assay in HepG2 cells [5] [nM]	Kd [6] [nM]	Kd [7] [nM]	koff [7] [s⁻¹]	kon [7] [M⁻¹ s⁻¹]	IC50 [8] [nM]	Kd [9] [nM]	koff [9] [s⁻¹]	kon [9] [M⁻¹ s⁻¹]	Kd [10] [nM]	koff [10] [s⁻¹]	kon [10] [M⁻¹ s⁻¹]	also measured	Molecule
–	–	–	–	–	–	–	–	–	–	–	–	–	EC50 [1]: 0.038 nM; IC50 (nM), LDL-uptake assay, HepG2 [2]: 77.6 nM; IC50 (nM), LDL-uptake assay, Huh-7 [2]: 98.2 nM; IC50 [3]: 2.1 nM	Repatha (evolocumab) (antibody)
0.14	130	0.6	1.08	0.000148	137000	8.5	–	–	–	–	–	–	–	2.6.6 (antibody, V domains shown, Mouse monoclonal antibody purified from hybridoma supernatant; also called 2.6.6 (mouse antibody)) VH: QVQLQQPGAEVVKPGASVTVSCKASGYTFTSYWIHWVMQRPGQGLEWIGELNPSDGRTNYNEKFKNKATLTVDTSSSTVYMQLSSLTSEDSAVYYCARSNFYGSSSFANWGQGTLVTVSA VL: EILLTQSPAIIAASPGEKVTITCSASSSVSYMNWYQQKPGSSPILWIYGISNLASGVPARFSGSGSGTSFSFTINNMEAEDVATYYCQQRSSYPPTFGGGTKLEIK
–	–	–	–	–	–	–	2.11	4.69e-05	22200	0.19	3.78e-06	19900	–	2.6.6-z4-uIgG1k (antibody, V domains shown, Humanized antibody of 2.6.6 with a human constant region of IgG1 isotype, kappa light chain) VH: QVQLVQSGAEVKKPGASVKVSCKASGYTFTSYWIHWVRQAPGQGLEWMGELNPSDGRTNYNEKFKNKATMTVDTSTSTVYMELSSLRSEDTAVYYCARSNFYGSSSFANWGQGTLVTVSS VL: DIQMTQSPSSLSASVGDRVTITCSASSSVSYMNWYQQKPGKAPKLLIYGISNLASGVPSRFSGSGSGTDFTFTISSLQPEDIATYYCQQRSSYPPTFGGGTKVEIK
0.14	72.5	0.5	0.0531	5.43e-05	1.02e+06	3	–	–	–	–	–	–	–	2.12.12.4 (antibody, V domains shown, Mouse monoclonal antibody purified from hybridoma supernatant; also called parental murine antibody) VH: EVQLQQSGPELVKPGASVKMSCEASGYTFTNYVMHWVKQKPGQGLEWIGYINPYNDYIKYNEKFKGKATLTSDKSSSTTYLEVSSLTSEDSAVYYCGRQRYYGYRPYYAMDYWGQGTSVTVSS VL: NIVLTQSPASLAVSLGQRATISCRASESVDGYGNVFMHWYQQKPGQPPKLLIYLASNLESGVPDRFSGSGSRTDFTLTIDPVEADDAATYYCQQNNKDPWTFGGGTKLEIK
–	–	–	–	–	–	–	0.0271	2.67e-05	984000	0.379	0.000303	800000	EC50 (read off the curve) [11]: ~0.07 nM; EC50 [12]: 0.026 nM; IC50 [13]: 1.9 nM; EC50 (read off the curve) [14]: ~0.06 nM	2.12.12.4-z4-uIgG4k (antibody, V domains shown, the chains here are derived by undoing them; Human constant region of IgG4 isotype, kappa light chain) VH: QVQLVQSGAEVKKPGSSVKVSCEASGYTFTNYVMHWVRQAPGQGLEWMGYINPYNDYIKYNEKFKGKATITADKSTSTAYMELSSLRSEDTAVYYCGRQRYYGYRPYYAMDYWGQGTLVTVSS VL: DIVLTQSPASLAVSPGQRATITCRASESVDGYGNVFMHWYQQKPGQPPKLLIYLASNLESGVPARFSGSGSGTDFTLTINPVEANDTANYYCQQNNKDPWTFGGGTKVEIK
–	–	–	–	–	–	–	–	–	–	–	–	–	Kd [15]: 0.0423 nM; koff [15]: 4.32e-05 s⁻¹; kon [15]: 1.02e+06 M⁻¹ s⁻¹; Kd [16]: 0.522 nM; koff [16]: 0.000291 s⁻¹; kon [16]: 558000 M⁻¹ s⁻¹	2.12.12.4-v2-z4-uIgG4k (antibody, V domains shown, Engineered humanized antibody with a human constant region of IgG4 isotype, kappa light chain; also called engineered antibody lead) VH: QVQLVQSGAEVKKPGSSVKVSCEASGYTFTNYVMHWVRQAPGQGLEWMGYINPYNDYIKYNEKFKGKATITADKSTSTAYMELSSLRSEDTAVYYCGRQRYYGYRPYYAMDYWGQGTLVTVSS VL: DIVLTQSPASLAVSPGQRATITCRASESVEGYGNVFMHWYQQKPGQPPKLLIYLASNLESGVPARFSGSGSGTDFTLTINPVEADDTANYYCQQNNKDPWTFGGGTKVEIK
